Measured values: PMC3783163, “Attachment site recognition and regulation of directionality by the serine integrases”

T1: LI integrase CTD (Listeria innocua prophage (CLIP 11262; …, UniProt Q928V6 133-452)
T1 sequence: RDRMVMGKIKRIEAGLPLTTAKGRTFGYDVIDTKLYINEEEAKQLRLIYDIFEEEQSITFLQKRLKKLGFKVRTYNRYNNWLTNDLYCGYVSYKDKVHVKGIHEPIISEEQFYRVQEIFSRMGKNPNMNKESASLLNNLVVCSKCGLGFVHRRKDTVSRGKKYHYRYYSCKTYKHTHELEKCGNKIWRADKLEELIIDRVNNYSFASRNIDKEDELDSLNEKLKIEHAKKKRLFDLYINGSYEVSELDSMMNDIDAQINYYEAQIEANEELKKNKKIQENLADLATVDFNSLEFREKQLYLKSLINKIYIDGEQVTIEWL

B1: A118 attP P-arm half-site (crystal) (dsDNA)
DNA 1: GTTTAGTTCCTCGTTTTCTCTCGTTG
DNA 2: CCAACGAGAGAAAACGAGGAACTAAA

Assays:
[1] = test system: LI integrase WT (Listeria innocua prophage (CLIP 11262; cloned from ATCC BAA-680D genomic DNA)); experiment: EMSA; settings: EMSA: 20 mM Tris-HCl pH 7.4, 150 mM KCl, 2 mM DTT, 25 ug/ml BSA, 25 ug/ml salmon sperm DNA, 5% glycerol, ~1 nM DNA, 30 min at 30 C; 6% PAGE Tris-glycine pH …
[2] = test system: LI integrase ΔZD (Listeria innocua prophage (CLIP 11262; cloned from ATCC BAA-680D genomic DNA)); experiment: EMSA; settings: EMSA: 20 mM Tris-HCl pH 7.4, 150 mM KCl, 2 mM DTT, 25 ug/ml BSA, 25 ug/ml salmon sperm DNA, 5% glycerol, ~1 nM DNA, 30 min at 30 C; 6% PAGE Tris-glycine pH …
LI integrase CTD = molecular target: T1, LI integrase CTD; experiment: crystal structure (3.2 A); Zn2+ bound; 13 mM CaCl2 in drop; EMSA: 20 mM Tris-HCl pH 7.4, 150 mM KCl, 2 mM DTT, 25 ug/ml BSA, 25 ug/ml salmon sperm DNA, 5% glycerol, ~1 nM DNA, 30 min at 30 C; 6% PAGE Tris-glycine pH 8.3; settings: protein: recombinant; tags: C-terminal His6 (LEH6); 5' overhangs 1 nt (G top, C bottom), 25 bp duplex

Molecule | Kd [1] | binding signal (fold weaker than WT) [2] | binding result (LI integrase CTD)
LI attB 119-bp probe | 20 nM | 25 | –
LI attP 119-bp probe | 20 nM | 25 | –
B1 | – | – | binds
